Measured values: the Human Domainome abundance scans (Beltran et al. 2025)
± gives the uncertainty stated by the source.

B1: Histone H1t, residues 44 to 112; numbered along this chain, P22492 (parent)
chain: VSKLITEALSVSQERVGMSLVALKKALAAAGYDVEKNNSRIKLSLKSLVNKGILVQTRGTGASGSFKLS

Variants of: B1
Experiment: abundance fitness (aPCA) (normalised: wild type 0, dead -1); higher = more abundant; growth selection in yeast, the domain comes from the species named
Conditions: Homo sapiens

Question: Which abundance fitness does the source give for VSKLITEALSVSQERVGMSLVALKKALAAAGYDVEKNNSRIKLLLKSLVNKGILVQTRGTGASGSFKLS here?
Answer: -0.108 ± 0.055

Question: With VSKLITEALSVSQERVGMSLVALKKALAAAGYDVEKNNSRIKLMLKSLVNKGILVQTRGTGASGSFKLS as the variant, how does the abundance fitness read?
Answer: -0.047 ± 0.065

Question: With VSKLITEALSVSQERVGMSLVALKKALAAAGYDVEKNNSRIKLNLKSLVNKGILVQTRGTGASGSFKLS as the variant, how does the abundance fitness read?
Answer: -0.148 ± 0.043

Question: With VSKLITEALSVSQERVGMSLVALKKALAAAGYDVEKNNSRIKLPLKSLVNKGILVQTRGTGASGSFKLS as the variant, how does the abundance fitness read?
Answer: -0.636 ± 0.046

Question: Which abundance fitness does the source give for VSKLITEALSVSQERVGMSLVALKKALAAAGYDVEKNNSRIKLQLKSLVNKGILVQTRGTGASGSFKLS here?
Answer: -0.072 ± 0.046

Question: With VSKLITEALSVSQERVGMSLVALKKALAAAGYDVEKNNSRIKLRLKSLVNKGILVQTRGTGASGSFKLS as the variant, how does the abundance fitness read?
Answer: -0.173 ± 0.12

Question: Which abundance fitness does the source give for VSKLITEALSVSQERVGMSLVALKKALAAAGYDVEKNNSRIKLTLKSLVNKGILVQTRGTGASGSFKLS here?
Answer: 0.081 ± 0.036

Question: For VSKLITEALSVSQERVGMSLVALKKALAAAGYDVEKNNSRIKLVLKSLVNKGILVQTRGTGASGSFKLS, which abundance fitness is on record?
Answer: 0.16 ± 0.23

Question: With VSKLITEALSVSQERVGMSLVALKKALAAAGYDVEKNNSRIKLWLKSLVNKGILVQTRGTGASGSFKLS as the variant, how does the abundance fitness read?
Answer: -0.426 ± 0.24

Question: For VSKLITEALSVSQERVGMSLVALKKALAAAGYDVEKNNSRIKLYLKSLVNKGILVQTRGTGASGSFKLS, which abundance fitness is on record?
Answer: -0.279 ± 0.072

Question: Which abundance fitness does the source give for VSKLITEALSVSQERVGMSLVALKKALAAAGYDVEKNNSRIKLSAKSLVNKGILVQTRGTGASGSFKLS here?
Answer: -0.643 ± 0.082

Question: For VSKLITEALSVSQERVGMSLVALKKALAAAGYDVEKNNSRIKLSCKSLVNKGILVQTRGTGASGSFKLS, which abundance fitness is on record?
Answer: -0.425 ± 0.21

Question: Which abundance fitness does the source give for VSKLITEALSVSQERVGMSLVALKKALAAAGYDVEKNNSRIKLSEKSLVNKGILVQTRGTGASGSFKLS here?
Answer: -0.978 ± 0.46

Question: For VSKLITEALSVSQERVGMSLVALKKALAAAGYDVEKNNSRIKLSFKSLVNKGILVQTRGTGASGSFKLS, which abundance fitness is on record?
Answer: -0.372 ± 0.081

Question: For VSKLITEALSVSQERVGMSLVALKKALAAAGYDVEKNNSRIKLSGKSLVNKGILVQTRGTGASGSFKLS, which abundance fitness is on record?
Answer: -0.574 ± 0.15

Question: With VSKLITEALSVSQERVGMSLVALKKALAAAGYDVEKNNSRIKLSHKSLVNKGILVQTRGTGASGSFKLS as the variant, how does the abundance fitness read?
Answer: -1.2 ± 0.48

Question: Which abundance fitness does the source give for VSKLITEALSVSQERVGMSLVALKKALAAAGYDVEKNNSRIKLSIKSLVNKGILVQTRGTGASGSFKLS here?
Answer: -0.417 ± 0.28

Question: For VSKLITEALSVSQERVGMSLVALKKALAAAGYDVEKNNSRIKLSKKSLVNKGILVQTRGTGASGSFKLS, which abundance fitness is on record?
Answer: -0.859 ± 0.15

Question: Which abundance fitness does the source give for VSKLITEALSVSQERVGMSLVALKKALAAAGYDVEKNNSRIKLSMKSLVNKGILVQTRGTGASGSFKLS here?
Answer: -0.386 ± 0.089

Question: With VSKLITEALSVSQERVGMSLVALKKALAAAGYDVEKNNSRIKLSNKSLVNKGILVQTRGTGASGSFKLS as the variant, how does the abundance fitness read?
Answer: -0.897 ± 0.42

Question: For VSKLITEALSVSQERVGMSLVALKKALAAAGYDVEKNNSRIKLSPKSLVNKGILVQTRGTGASGSFKLS, which abundance fitness is on record?
Answer: -0.46 ± 0.049

Question: For VSKLITEALSVSQERVGMSLVALKKALAAAGYDVEKNNSRIKLSQKSLVNKGILVQTRGTGASGSFKLS, which abundance fitness is on record?
Answer: -0.782 ± 0.24

Question: For VSKLITEALSVSQERVGMSLVALKKALAAAGYDVEKNNSRIKLSRKSLVNKGILVQTRGTGASGSFKLS, which abundance fitness is on record?
Answer: -0.915 ± 0.11

Question: With VSKLITEALSVSQERVGMSLVALKKALAAAGYDVEKNNSRIKLSSKSLVNKGILVQTRGTGASGSFKLS as the variant, how does the abundance fitness read?
Answer: -0.742 ± 0.046

Question: With VSKLITEALSVSQERVGMSLVALKKALAAAGYDVEKNNSRIKLSTKSLVNKGILVQTRGTGASGSFKLS as the variant, how does the abundance fitness read?
Answer: -0.63 ± 0.062

Question: Which abundance fitness does the source give for VSKLITEALSVSQERVGMSLVALKKALAAAGYDVEKNNSRIKLSVKSLVNKGILVQTRGTGASGSFKLS here?
Answer: -0.141 ± 0.11

Question: For VSKLITEALSVSQERVGMSLVALKKALAAAGYDVEKNNSRIKLSWKSLVNKGILVQTRGTGASGSFKLS, which abundance fitness is on record?
Answer: -0.125 ± 0.092

Question: Which abundance fitness does the source give for VSKLITEALSVSQERVGMSLVALKKALAAAGYDVEKNNSRIKLSLASLVNKGILVQTRGTGASGSFKLS here?
Answer: -0.01 ± 0.067

Question: With VSKLITEALSVSQERVGMSLVALKKALAAAGYDVEKNNSRIKLSLCSLVNKGILVQTRGTGASGSFKLS as the variant, how does the abundance fitness read?
Answer: -0.628 ± 0.15

Question: For VSKLITEALSVSQERVGMSLVALKKALAAAGYDVEKNNSRIKLSLDSLVNKGILVQTRGTGASGSFKLS, which abundance fitness is on record?
Answer: -0.329 ± 0.28

Question: For VSKLITEALSVSQERVGMSLVALKKALAAAGYDVEKNNSRIKLSLESLVNKGILVQTRGTGASGSFKLS, which abundance fitness is on record?
Answer: -0.053 ± 0.14

Question: Which abundance fitness does the source give for VSKLITEALSVSQERVGMSLVALKKALAAAGYDVEKNNSRIKLSLGSLVNKGILVQTRGTGASGSFKLS here?
Answer: -0.875 ± 0.16

Question: Which abundance fitness does the source give for VSKLITEALSVSQERVGMSLVALKKALAAAGYDVEKNNSRIKLSLHSLVNKGILVQTRGTGASGSFKLS here?
Answer: -0.35 ± 0.12

Question: With VSKLITEALSVSQERVGMSLVALKKALAAAGYDVEKNNSRIKLSLISLVNKGILVQTRGTGASGSFKLS as the variant, how does the abundance fitness read?
Answer: -0.129 ± 0.056

Question: With VSKLITEALSVSQERVGMSLVALKKALAAAGYDVEKNNSRIKLSLLSLVNKGILVQTRGTGASGSFKLS as the variant, how does the abundance fitness read?
Answer: -0.178 ± 0.029

Question: With VSKLITEALSVSQERVGMSLVALKKALAAAGYDVEKNNSRIKLSLMSLVNKGILVQTRGTGASGSFKLS as the variant, how does the abundance fitness read?
Answer: -0.23 ± 0.038

Question: For VSKLITEALSVSQERVGMSLVALKKALAAAGYDVEKNNSRIKLSLNSLVNKGILVQTRGTGASGSFKLS, which abundance fitness is on record?
Answer: -0.489 ± 0.11

Question: With VSKLITEALSVSQERVGMSLVALKKALAAAGYDVEKNNSRIKLSLPSLVNKGILVQTRGTGASGSFKLS as the variant, how does the abundance fitness read?
Answer: -0.841 ± 0.07

Question: Which abundance fitness does the source give for VSKLITEALSVSQERVGMSLVALKKALAAAGYDVEKNNSRIKLSLQSLVNKGILVQTRGTGASGSFKLS here?
Answer: -0.226 ± 0.066
